For data set [1], the target named is His10-AlpC (Cg1890), actin-like protein of the prophage CGP3 of Corynebacterium glutamicum ATCC 13032 (Corynebacterium glutamicum ATCC 13032 (prophage CGP3)). Briefly: co-sedimentation; AlpC and AlpA (or control protein) equimolar, 5 uM each, 20 ul, EMSA buffer (20 mM Tris/HCl pH 7.5, 50 mM KCl, 10 mM MgCl2, 5% glycerol, 0.5 mM EDTA, 0.005% Triton X-100), 30°C 30 min, with or without 1 mM ATP and/or 100 ng DNA (500 bp upstream of alpA); 16 100 x g 1 h; SDS-PAGE, Coomassie, ImageQuant TL. For orientation: In EMSA bound probe runs differently from free probe, usually more slowly.

Substrate in data set [2]: Nc1nc2c(ncn2[C@@H]2O[C@H](COP(=O)(O)OP(=O)(O)OP(=O)(O)O)[C@@H](O)[C@H]2O)c(=O)[nH]1
The experiment in a line: purified protein. The data set is classed as biochemical, Corynebacterium glutamicum. As to conditions: 1 uM protein, equimolar MgSO4, 50 mM Tris/HCl pH 7.5, 150 mM NaCl, 10% glycerol, 30 °C.

Substrate in data set [3]: Nc1ncnc2c1ncn2[C@@H]1O[C@H](COP(=O)(O)OP(=O)(O)OP(=O)(O)O)[C@@H](O)[C@H]1O
Briefly: purified protein. As to conditions: 1 uM protein, equimolar MgSO4, 50 mM Tris/HCl pH 7.5, 150 mM NaCl, 10% glycerol, 30 °C. The data set is classed as biochemical, Corynebacterium glutamicum.

Turning to “His10-AlpA (Cg1891), adaptor protein of the prophage CGP3 of Corynebacterium glutamicum (natural protein)”, in data set [1], the percent of AlpA co-sedimented with AlpC (with ATP and DNA) stood at 38%; the percent of AlpA co-sedimented with AlpC (with ATP) turned out to be 30%.

B1: AlpC (Corynebacterium glutamicum ATCC 13032) (protein)
chain: MTSAVNVQKKTTQKVLKPINTKNYSATDAVQTGQHGSALGSNIGVYTYTAGLDIGNGYVKGIIEATGDTTGTSVDVIDMPSAATRMSRPTEVPEPDDTAVAVTGADFFNHIDTNFNSPMVKGNYRYLCGTRSLSARGSLEEFDLVGNRSKAEQELSKVLVMAVLAAKAVKDFVAAHGRIPQVAVEGDPGVLRVHTYLALALPINEYVGHRHGYKAQFMGDGAANPAVHVVTVNNFETPATVQLIFERVEVIAEGASAQYAITAGGEVLMNGMLADVRSKGLALEGVTAGDVLQARHTIGVDVGEGTVNFPVFTDGRFNHDASRAYDKGYGTVLESAIQAMDDAGLAHNFNSRKQLADYLQRPPSALKRNFYTRVEQHVDQEAVFFVQDVAAEFARVLSDVGALTEVAFVYGGGSGPLRDRLHEALLIKAAEMGSEDTFPVLYLDSAYSRKLNREGLMIAARSIAAKARK
notes: N-terminal His10 tag kept (His10-AlpC), expressed in E. coli BL21 (DE3) pLysS, HisTrap and Superdex 200 purified; encoded by cryptic prophage CGP3; polymerizes with nucleotide and Mg2+
As a reminder, the Km is the substrate concentration at which the rate is half of its maximum. As for B1, the Km in the data set “purified protein [2]” amounted to 0.43 mM; in the data set “purified protein [3]” it was 0.2 mM.

The values are drawn from publication PMC4446434, “A prophage-encoded actin-like protein required for efficient viral DNA replication in bacteria” (Nucleic Acids Research, 2015).
